The values that follow come from publication PMC3107197.

The test deals with GFP-tagged Fab1p (yeast) [yeast]. The experiment in a line: co-immunoprecipitation (IP: Fab1p-GFP), densitometry. As to conditions: Bound fraction; parent: 1.

For the substance “myc-tagged Fig4p (wildtype, yeast) mutant I59T [yeast] / GFP-tagged Fab1p (yeast) [yeast] chain 1 I59T”, the ratio to parent came out at 0.4.
